Series [1] deals with stab1 cystatin C (L47C/G69C), disulfide-stabilized monomer (human) (UniProt P01034). In words: MALDI-TOF MS; isolated oligomers 1 mg/ml in 150 mM ammonium bicarbonate pH 7.8 (nonreducing), matrix 2,6-dihydroxyacetophenone.
The target is the same in series [2]. Description: native gel or EMSA; agarose gel electrophoresis under native conditions; stab1 cystatin C 0.2 mg/ml (15 uM) in PBS pH 7.4, 0.5 or 1.0 M GdnHCl, 1:1 molar equivalents of DTT, 24 h at 40 C. Background: Mobility shift assays separate free from complexed probe on a gel.
Series [3] has as its target Mammalian legumain (EC 3.4.22.34) (pig).
Series [4] concerns the molecule itself. Description: SEC; SEC at the end of the purification of refolded L68Q cystatin C.
Series [5] deals with the molecule itself. Description: SDS-PAGE in 0.1% SDS of unboiled, nonreduced samples; 1 mg/ml in 50 mM sodium acetate pH 4.0, 100 mM NaCl, 48 C, 900 rpm, 4 h; gel run at 4 C, silver-stained.

Positions count from the first letter of the chain named. Names may count otherwise. “And” between values parts separate entries of the source, which are not always exact repeats. Equal values may be shown once.

What is called stoichiometry N is a count of units in the complex or per binding partner.

In turn, “stab1 cystatin C (L47C/G69C), disulfide-stabilized monomer (from UniProt P01034 27-146)” registered a stoichiometry N (monomeric subunits) in series [1] of 2.

Consider “stab1 cystatin C (L47C/G69C), disulfide-stabilized monomer (from UniProt P01034 27-146) (natural protein)”, for which, in series [2], the stoichiometry N was determined as 2. The stoichiometry N (monomeric subunits) in series [1] is 4 and 3.

Take “stabilized cystatin C decamer (stab1, L47C/G69C) (from UniProt P01034 27-146) (complex)”: the inhibitory capacity toward legumain (fluorogenic substrate Z-Ala-Ala-Asn-AMC), equal mass concentrations in series [3] worked out at 93%.

Turning to “stabilized cystatin C dimer (stab1, L47C/G69C) (from UniProt P01034 27-146) (complex)”, the inhibitory capacity toward legumain (fluorogenic substrate Z-Ala-Ala-Asn-AMC), equal mass concentrations in series [3] is 102%.

As for “stabilized cystatin C trimer (stab1, L47C/G69C) (from UniProt P01034 27-146) (complex)”, the inhibitory capacity toward legumain (fluorogenic substrate Z-Ala-Ala-Asn-AMC), equal mass concentrations in series [3] is 99%.

B1: stabilized cystatin C high molecular weight oligomers (stab1, L47C/G69C) (complex)
chain: SSPGKPPRLVGGPMDASVEEEGVRRALDFAVGEYNKASNDMYHSRACQVVRARKQIVAGVNYFLDVELCRTTCTKTQPNLDNCPFHDQPHLKRKAFCSFQIYAVPWQGTMTLSKSTCQDA
modifications: intermolecular disulfide bridges (the paper: most likely Cys47-Cys69)
Regarding B1, the inhibitory capacity toward legumain (fluorogenic substrate Z-Ala-Ala-Asn-AMC), equal mass concentrations in series [3] was 55%.

B2: L68Q cystatin C (natural protein, human, UniProt P01034 27-146, looked up)
chain: B1 chain with C47L, L68Q, C69G
notes: cystatin C, human, hereditary cystatin C amyloid angiopathy variant L68Q; also called L68Q cystatin C variant; disease-associated L68Q variant
As for B2, the “stoichiometry N” value in series [4] was 2.

B3: human wild type cystatin C (natural protein, UniProt P01034 27-146, looked up)
chain: B1 chain with C47L, C69G
notes: cystatin C, human, wild type; Mr 13,343; also called wt cystatin C; wt monomer; source: E. coli periplasmic extract, purified (ion-exchange, SEC), lyophilized
For B3, the binding result in series [5] was “binds”.

The values above are taken from PMC3675580, “Stabilization, Characterization, and Selective Removal of Cystatin C Amyloid Oligomers*” (The Journal of Biological Chemistry, 2013).
